Assay results as given in article PMC9169858 (Proceedings of the National Academy of Sciences of the …, 2022).

Molecular target: SARS-CoV-2 main protease (M^pro), pGEX4T-1 construct, GST removed by thrombin (SARS-CoV-2, Wuhan-Hu-1 (MN908947.3))
Assay: BLI
Conditions: both partners purified

B1: NB2E3 (VHH)
VHH: QVQLQESGGGSVQAGGSLRLSCAVSGFIATSCALGWFRQAPGKEREGIATITTDGTTYYVDSVKGRFTISQDNAKNTVALQMNSLKPEDTAMYYCKLCCSGQYCAWGQGTQVTVSS
binding result: binds

B2: NB1D10 (VHH)
VHH: QVQLQESGGGSVQAGGSLRLSCAVSGYSYCNYDLGWFRQAPGKEREGIATIDSDGNTYYVDSVKGRFTISQDNAKNTVALQMNSLKPEDTAMYYCKVGSIASSVPEVSCPPSAPFGYWGQGTQVTVSS
binding result: binds
